Data on five molecules can be found in patent publication US20220177576A1 (DENALI THERAPEUTICS, published 2022).

T1: recombinant human TREM2 ECD (human, UniProt Q9NZC2 19-172)
T1 construct: TREM2' / 'TREM2 ECD'; also called hTREM2; Human TREM2 (Biacore)
T1 sequence: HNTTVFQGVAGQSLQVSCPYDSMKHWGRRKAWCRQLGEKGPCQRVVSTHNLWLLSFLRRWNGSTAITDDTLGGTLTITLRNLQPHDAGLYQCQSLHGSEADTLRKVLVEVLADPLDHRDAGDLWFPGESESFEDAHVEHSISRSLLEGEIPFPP

T2: recombinant cynomolgus TREM2 ECD (cynomolgus, UniProt A0A2K5UY34 49-204)
T2 construct: extracellular domain; also called Cyno TREM2
T2 sequence: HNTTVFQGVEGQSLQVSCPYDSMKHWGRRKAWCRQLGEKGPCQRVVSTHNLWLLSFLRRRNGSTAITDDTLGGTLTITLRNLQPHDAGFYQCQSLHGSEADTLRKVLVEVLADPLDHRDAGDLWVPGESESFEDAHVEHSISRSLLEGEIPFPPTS

T3: human TREM2 expressed on HEK293-H6 cells (human, UniProt Q9NZC2 19-230)
T3 construct: Wild type human TREM2 stably co-expressed with DAP12 in HEK 293 cells (clone HEK293-H6); also called Human TREM2 HEK; TREM2 expressed by HEK293-H6 cells
T3 sequence: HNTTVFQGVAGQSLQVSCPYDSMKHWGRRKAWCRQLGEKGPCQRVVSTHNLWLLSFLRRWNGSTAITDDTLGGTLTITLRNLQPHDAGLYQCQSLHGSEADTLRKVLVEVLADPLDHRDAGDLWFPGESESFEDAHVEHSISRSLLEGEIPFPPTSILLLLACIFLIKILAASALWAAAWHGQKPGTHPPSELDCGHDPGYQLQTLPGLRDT

B1: ATV:TREM2 #5 (antibody, human IgG1, kappa, L234A L235A)
heavy 1: EVQLVESGGGLVQPGGSLRLSCAASGFTFTDFYMSWVRQAPGKGLEWVSVIRNKANAYTAGYNPSVKGRFTISRDNSKNTLYLQMNSLRAEDTAVYYCARLTYGFDYWGQGTLVTVSSASTKGPSVFPLAPSSKSTSGGTAALGCLVKDYFPEPVTVSWNSGALTSGVHTFPAVLQSSGLYSLSSVVTVPSSSLGTQTYICNVNHKPSNTKVDKKVEPKSCDKTHTCPPCPAPEAAGGPSVFLFPPKPKDTLMISRTPEVTCVVVDVSHEDPEVKFNWYVDGVEVHNAKTKPREEQYNSTYRVVSVLTVLHQDWLNGKEYKCKVSNKALPAPIEKTISKAKGQPREPQVYTLPPSRDELTKNQVSLWCLVKGFYPSDIAVEWESYGTEWSNYKTTPPVLDSDGSFFLYSKLTVSKEEWQQGFVFSCSVLHEALHSHYTQKSLSLSPGK
heavy 2: EVQLVESGGGLVQPGGSLRLSCAASGFTFTDFYMSWVRQAPGKGLEWVSVIRNKANAYTAGYNPSVKGRFTISRDNSKNTLYLQMNSLRAEDTAVYYCARLTYGFDYWGQGTLVTVSSASTKGPSVFPLAPSSKSTSGGTAALGCLVKDYFPEPVTVSWNSGALTSGVHTFPAVLQSSGLYSLSSVVTVPSSSLGTQTYICNVNHKPSNTKVDKKVEPKSCDKTHTCPPCPAPEAAGGPSVFLFPPKPKDTLMISRTPEVTCVVVDVSHEDPEVKFNWYVDGVEVHNAKTKPREEQYNSTYRVVSVLTVLHQDWLNGKEYKCKVSNKALPAPIEKTISKAKGQPREPQVYTLPPSRDELTKNQVSLSCAVKGFYPSDIAVEWESNGQPENNYKTTPPVLDSDGSFFLVSKLTVDKSRWQQGNVFSCSVLHEALHSHYTQKSLSLSPGK
light: DIVMTQTPLSLPVTPGEPASISCQSSKSLLHSTGKTYLNWYLQKPGQSPQLLIYWMSTRASGVPDRFSGSGSGTDFTLKISRVEAEDVGVYYCQQFLEYPFTFGQGTKVEIKRTVAAPSVFIFPPSDEQLKSGTASVVCLLNNFYPREAKVQWKVDNALQSGNSQESVTEQDSKDSTYSLSSTLTLSKADYEKHKVYACEVTHQGLSSPVTKSFNRGEC
notes: Knob/hole heterodimeric IgG1; the second carries hole, LALA and LS; also called anti-TREM2/CH35.23.4
B2: ATV:TREM2 #2 (antibody, human IgG1, kappa, L234A L235A)
heavy 1: B1 heavy 1 with Y385F
heavy 2: B1 heavy 2
light: B1 light
notes: Knob/hole heterodimeric IgG1; the second carries hole, LALA and LS; also called anti-TREM2/CH35.23.1.1
B3: ATV:TREM2 #4 (antibody, human IgG1, kappa, L234A L235A)
heavy 1: B1 heavy 1 with S390V, S414T
heavy 2: not shown
light: B1 light
notes: Knob/hole heterodimeric IgG1; the second carries hole and LS only, without LALA; also called CH3C.35.23.3 cisLALA
B4: ATV:TREM2 #3 (antibody, human IgG1, kappa, L234A L235A)
heavy 1: B1 heavy 1 with S390V, S414T
heavy 2: B1 heavy 2
light: B1 light
notes: Knob/hole heterodimeric IgG1; the second carries hole, LALA and LS; also called anti-TREM2/CH35.23.3
B5: TREM2 Ab (antibody, human IgG1, kappa, L234A L235A, V domains shown)
VH: EVQLVESGGGLVQPGGSLRLSCAASGFTFTDFYMSWVRQAPGKGLEWVSVIRNKANAYTAGYNPSVKGRFTISRDNSKNTLYLQMNSLRAEDTAVYYCARLTYGFDYWGQGTLVTVSS
VL: DIVMTQTPLSLPVTPGEPASISCQSSKSLLHSTGKTYLNWYLQKPGQSPQLLIYWMSTRASGVPDRFSGSGSGTDFTLKISRVEAEDVGVYYCQQFLEYPFTFGQGTKVEIKR
notes: also called corresponding anti-TREM2 antibody; TREM2 IgG

Substitutions are numbered along the chain they refer to.

The first assay concerns the target T1, recombinant human TREM2 ECD. Kind of assay: SPR (Biacore), antibody captured by anti-human Fab, TREM2 ECD as analyte. The protocol: (§1) Surface plasmon resonance (Biacore™ 8K instrument) was used to measure anti-TREM2 antibody affinities for human and cynomolgus TREM2 ECD. Anti-TREM2 antibodies were captured using Human Fab Capture Kit (GE Healthcare Life Sciences, Catalog No. 28958325) on a Biacore Series S CM5 sensor chip (GE Healthcare Life Sciences, Catalog No. 29149604). Serial 3-fold dilutions of recombinant human or cynomolgus TREM2 were injected at a flow rate of 30 μL/min. Antibody binding was monitored for 300 seconds, followed by monitoring of antibody dissociation for 600+ seconds in HBS-EP+ running buffer (GE Healthcare Life Sciences, Catalog No. BR100669). The binding response was corrected by subtracting the RU value from a blank flow cell. A 1:1 Languir model of simultaneous fitting of kₒₙ and koff was used for kinetics analysis. KD binding values were calculated from kₒₙ and koff.
Background: In SPR one partner is held on a chip, and binding of the other changes the refractive index at the surface.
By Kd is commonly meant the concentration at which binding is half-saturated. In the case of B1, the dissociation constant (Kd) worked out at 5.7 nM.
Consider B2, for which the Kd amounted to 5.4 nM.
Take B3: the Kd was 2 nM.
On the same count and under the same terms, for B4 the value was 3 nM.

The next assay deals with T2, recombinant cynomolgus TREM2 ECD. Kind of assay: SPR (Biacore), antibody captured by anti-human Fab, cyno TREM2 ECD as analyte. The protocol: as §1
Consider B1, for which the Kd is 2.4 nM.
Consider B2, for which the Kd is 2.4 nM.
With B3, the Kd was determined as 2.2 nM.
Still for that read-out and setting: for B4 the value was 2.2 nM.

For a further assay, the target named is T4, human transferrin receptor (human, UniProt P02786 89-760, limits assumed).
T4 construct: also called Human TfR; TfR
T4 sequence (P02786 89-760 limits assumed): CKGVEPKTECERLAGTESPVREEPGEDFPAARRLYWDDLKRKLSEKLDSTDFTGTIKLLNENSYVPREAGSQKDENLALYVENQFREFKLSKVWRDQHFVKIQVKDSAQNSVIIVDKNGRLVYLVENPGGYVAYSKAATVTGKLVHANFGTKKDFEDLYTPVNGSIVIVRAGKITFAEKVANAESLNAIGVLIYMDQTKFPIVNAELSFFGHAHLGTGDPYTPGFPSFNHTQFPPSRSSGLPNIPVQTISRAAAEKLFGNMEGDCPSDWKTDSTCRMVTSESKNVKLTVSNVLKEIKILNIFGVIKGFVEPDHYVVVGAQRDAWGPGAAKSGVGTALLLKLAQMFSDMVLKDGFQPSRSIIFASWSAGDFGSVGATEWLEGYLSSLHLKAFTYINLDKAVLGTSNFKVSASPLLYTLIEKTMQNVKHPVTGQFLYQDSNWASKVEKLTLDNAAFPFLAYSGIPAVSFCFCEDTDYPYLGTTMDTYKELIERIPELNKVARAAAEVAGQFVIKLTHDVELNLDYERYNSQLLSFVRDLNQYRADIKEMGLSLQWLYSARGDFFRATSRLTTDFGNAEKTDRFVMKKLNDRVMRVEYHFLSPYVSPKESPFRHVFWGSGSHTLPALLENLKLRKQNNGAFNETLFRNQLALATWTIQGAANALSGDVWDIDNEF
Kind of assay: SPR (Biacore), antibody captured by anti-human Fab on CM5 chip, human TfR as analyte, 1:1 model. How it is done: Binding of anti-TREM2 protein to human transferrin receptor was determined as follows: anti-human-Fab was immobilized on a CM5 chip, and the anti-TREM2 protein was captured. Full-length human TfR or human TfR apical domain at serial dilution (e.g., concentrations of 1-1,000 nM) was flowed over the chip (180 second association time) and then allowed to dissociate. Fitting was performed using a 1:1 binding model.
As for B1, the affinity, expressed as Kd, was 620 nM.
The molecule B2 came in with a Kd of 650 nM.
B4 displayed a Kd of 1400 nM.

A further assay concerns the target T3, human TREM2 expressed on HEK293-H6 cells. Kind of assay: flow cytometry, dose titration on HEK 293 cells expressing human TREM2 (TREM2-expressing HEK). How it is done: (§2) After incubation, the cells were centrifuged and washed in FACS buffer (PBS+0.5% BSA) twice. Mixed cells were resuspended in FACS buffer with human Trustain FcX solution (Biolegend, Catalog No. 422302) at a density of 10⁶/mL per cell line. The mixed cell lines were seeded at 200,000 cells per well in a 96-well round-bottom plate and incubated for 20 minutes at room temperature. After incubation, the cells were centrifuged and incubated with a dose titration of anti-TREM2 antibodies for 45 minutes on ice. After incubation, the cells were centrifuged and washed with FACS buffer three times. The cells were then incubated with secondary antibody (Alexa Fluor 647 AffiniPure F(ab′)2 Fragment Goat Anti-human IgG(H+L), Jackson ImmunoResearch Laboratories, Catalog No. 109-606-088, 1:800 dilution) for 30 minutes on ice. After incubation, the cells were washed with FACS buffer three times, resuspended in 100 μL of FACS buffer, and analyzed by flow cytometry (BD FACSCanto II, San Jose, Calif.), for which 30,000 events were obtained for each sample. Mean fluorescence intensity per cells were calculated by FlowJo software and used for generating dose response binding curve.
(In general: Flow cytometry measures light scatter and fluorescence of single cells or particles in a stream.)
As a reminder, the EC50 (read off the curve) is the concentration giving half of the maximal effect. As for B5, the “EC50 (read off the curve)” value is ~0.4 nM.

The next assay shares this target. Kind of assay: flow cytometry on human TREM2-expressing HEK cells. How it is done: as §2
One may read the EC50 as the concentration needed to bring the measured effect to its halfway point. A high value points to lower potency in that assay. The molecule B1 returned an EC50 of 3.6 nM.
Turning to B2, the response was half-maximal at 4.9 nM (EC50).
Take B4: a half-maximal effect (EC50) was put at 4.6 nM.
